Assays:
Assay in all cases: EMSA
Details in all cases: EMSA: 20 mM HEPES pH 7.4, 330 mM KCl, 10 mM MgCl2, 0.1 mM EDTA, 0.1 mg/ml heparin, 0.01% IGEPAL CA630, room temperature, 1 h; SELEX: 50 mM Tris-HCl pH 8.0 …
His-SLM-2 = target: T1, His-SLM-2 (UniProt Q9R226)
T1 sequence: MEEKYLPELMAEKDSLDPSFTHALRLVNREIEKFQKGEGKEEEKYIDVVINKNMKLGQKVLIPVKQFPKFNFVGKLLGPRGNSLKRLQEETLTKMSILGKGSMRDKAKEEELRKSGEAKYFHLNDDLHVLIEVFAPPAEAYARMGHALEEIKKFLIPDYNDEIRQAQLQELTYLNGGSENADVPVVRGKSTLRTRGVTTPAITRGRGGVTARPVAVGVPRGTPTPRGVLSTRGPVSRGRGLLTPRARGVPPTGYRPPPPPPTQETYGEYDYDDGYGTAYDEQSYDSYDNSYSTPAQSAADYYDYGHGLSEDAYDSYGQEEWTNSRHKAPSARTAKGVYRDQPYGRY

GST-QKI-5 = system: GST-QKI-5
MBP-GLD-1 (C. elegans) = system: MBP-GLD-1 (C. elegans)

With “AUCGUAAUAAACAAUUAAUUUGGAUUUCUUGAGCUUAUGGCUUUUAAUAUGGG [SRE-7m2]” the Kd (His-SLM-2) was 14.5 nM.
For AUCGUGGUGGGCGGUUAAUUUGGAUUU [SRE-7d1], the Kd (His-SLM-2) was greater than 1000 nM.
Work on “AUCGUGGUGGGCGGUUAAUUUGGAUUUCUUGAGCUUAUGGCUCGACGCAUGGG [SRE-7m3]” yielded a Kd (His-SLM-2) greater than 1000 nM.
For “AUCGUGGUGGGCGGUUAAUUUGGAUUUCUUGAGCUUAUGGCUUUUAAUAUGGG [SRE-7wt]”, the Kd (His-SLM-2) was 30.3 nM.
In the case of “AUCUUGUUCUCCGCUUAAUUUGGAUUUCUUGAGCUUAUGGCUUUUAAUAUGGG [SRE-7m1]”, the Kd (His-SLM-2) is reported as 45.2 nM.
GGAUUUCUUGAGCUUAUGGCUUUUAAU [SRE-7d6] showed a Kd (His-SLM-2) greater than 1000 nM.
Substance “GGUUAAUCUGGAUUUCUUGAGCUUAUGGCUUUUCCUAUGG [SRE-7d9m3]” has a Kd (His-SLM-2) of 400 nM.
In the case of GGUUAAUUUGGAUUUCUUGAGCUUAUG [SRE-7d3], the Kd (His-SLM-2) is reported as greater than 1000 nM.
“GGUUAAUUUGGAUUUCUUGAGCUUAUGGCUUUU [SRE-7d8]” was tested, and the Kd (His-SLM-2) was greater than 1000 nM.
For “GGUUAAUUUGGAUUUCUUGAGCUUAUGGCUUUUAAUAUGG [SRE-7d9]”, the Kd (His-SLM-2) was 22.3 nM.
Work on “GGUUCCCCUGGAUUUCUUGAGCUUAUGGCUUUCCCCAUGG [SRE-7d9m1]” yielded a Kd (His-SLM-2) greater than 1000 nM.
Substance “GGUUCCUUUGGAUUUCUUGAGCUUAUGGCUUUUAAUAUGG [SRE-7d9m2]” has a Kd (His-SLM-2) of 400 nM.
“GGUUCUACCCCAAUUUUCACUAUCCUACCCCCAGUUCC [SRE-4m1]” gave a Kd (His-SLM-2) greater than 1000 nM.
Work on “GGUUCUACCCCAAUUUUCACUAUCCUAUUAACAGUUCC [SRE-4m2]” yielded a Kd (His-SLM-2) greater than 1000 nM.
For “GGUUCUAUAAAAAUUUUCACUAUCCUACCCCCAGUUCC [SRE-4m3]”, the Kd (His-SLM-2) was greater than 1000 nM.
With “GGUUCUAUAAAAAUUUUCACUAUCCUAUUAACAGUUCC [SRE-4wt]” the Kd (His-SLM-2) was 16.3 nM.
Work on “GGUUCUAUACCCCCUUUCACUAUCCUAUUAACAGUUCC [SRE-4m4]” yielded a Kd (His-SLM-2) greater than 1000 nM.
With GUGGGCGGUUAAUUUGGAUUUCUUGAG [SRE-7d2] the Kd (His-SLM-2) was greater than 1000 nM.
For QRE-2:wt, the Kd (GST-QKI-5) was 121 nM.
In the case of TGE-wt, the Kd (MBP-GLD-1 (C. elegans)) is reported as 104 nM and the Kd (GST-QKI-5) is reported as 300 nM.
UAAUUUGGAUUUCUUGAGCUUAUGGCU [SRE-7d7] gave a Kd (His-SLM-2) greater than 1000 nM.
Substance UUUCUUGAGCUUAUGGCUUUUAAUAUGG [SRE-7d5] has a Kd (His-SLM-2) greater than 1000 nM.
For UUUGGAUUUCUUGAGCUUAUGGCUUUU [SRE-7d4], the Kd (His-SLM-2) was greater than 1000 nM.
